Reference: paper PMC3282769, “New Insight into the Transcarbamylase Family: The Structure of Putrescine Transcarbamylase, a Key Catalyst for Fermentative Utilization of Agmatine” (PLoS ONE, 2012)

Target: the molecule itself
Experiment: SEC; analytical size exclusion chromatography, Superdex 200HR 5/150 GL, 20 µl of 10 mg/ml protein injected, 24°C, 50 mM Hepes pH 7.5, 0.25 M NaCl; column calibrated with protein standards

Row | Protein | stoichiometry N
1 | putrescine transcarbamylase (PTC) from Enterococcus faecalis, wild type (enzyme, putrescine transcarbamylase, Enterococcus faecalis, gene ef0732, UniProt Q837U7; the final PTC-PAPU model has residues 1 to 340 in each chain; also called wild-type PTC; WT) not shown | 3
2 | Enterococcus faecalis PTC lacking the C-terminal helix (helix 13), amino acids 1-317 (domain or fragment, putrescine transcarbamylase, Enterococcus faecalis SD10 genomic DNA, gene ef0732, amino acids 1-317 followed by a stop codon (stop codon at position 318); Cloned in pNIC28-Bsa4; Most of the protein eluted as hexamers, a small fraction as monomers; also called truncated PTC; Trun; source: E. coli BL21 (DE3) co-transformed with pGroESL, purified (Ni-based chromatography)) not shown | 6
